Experimental data taken from PMC5957299.

How the values were obtained:
[1] = FVIII antigen ELISA, 293T conditioned media; details: control: WT full-length FVIII
[2] = FVIII antigen ELISA, 293T cell extracts; details: control: WT full-length FVIII
[3] = anti-FLAG IP/blot of 293T conditioned media; details: glycan lost
[4] = chromogenic activity / ELISA antigen ratio in media; details: control: WT full-length FVIII
[5] = Coatest SP4 chromogenic assay, 293T media; details: control: WT full-length FVIII
[6] = anti-FLAG IP/blot of media, TM 2 μg/ml 12 h; details: glycan lost; control: same construct, untreated

With Coagulation factor VIII (FVIII): N2118Q the “expression_or_secretion, percent_of_wt” value ([1]; glycan lost) was “no change”, the “expression_or_secretion, percent_of_wt” value ([2]; glycan lost) was “no change” and the expression_or_secretion ([3]; control: WT C domain) was “decreases”. For the same substance, the “other: relative (specific) cofactor activity, percent_of_wt” value ([4]; glycan lost) was “no change” and the “other: cofactor (coagulant) activity in conditioned media, percent_of_wt” value (from here on “other: cofactor … percent_of_wt”) ([5]; glycan lost) was “no change”.

For Coagulation factor VIII (FVIII): W2062S, the “expression_or_secretion, percent_of_wt” value ([1]; glycan gained) was “no change”, the “expression_or_secretion, percent_of_wt” value ([2]; glycan gained) was “no change” and the “other: relative (specific) cofactor activity, percent_of_wt” value ([4]; glycan gained) was “decreases”. For the same substance, the “other: cofactor … percent_of_wt” value ([5]; glycan gained) was “decreases”.

With “Coagulation factor VIII (FVIII): TM, A469T A2 domain” the expression_or_secretion [6] was “increases”.

With “Coagulation factor VIII (FVIII): TM, I566T A2 domain” the expression_or_secretion [6] was “decreases”.

With “Coagulation factor VIII (FVIII): TM, M614T A2 domain” the expression_or_secretion [6] was “no change”.

In the case of “Coagulation factor VIII (FVIII): TM, WT C domain”, the expression_or_secretion [6] is reported as “decreases”.

With “Coagulation factor VIII (FVIII): N2118Q + D2131N” the expression_or_secretion ([3]; control: D2131N C domain) was “abolishes”.

With Coagulation factor VIII (FVIII): D2131N the “expression_or_secretion, percent_of_wt” value ([1]; glycan gained) was “no change”, the “expression_or_secretion, percent_of_wt” value ([2]; glycan gained) was “no change” and the “other: relative (specific) cofactor activity, percent_of_wt” value ([4]; glycan gained) was “decreases”. For the same substance, the “other: cofactor … percent_of_wt” value ([5]; glycan gained) was “decreases”.

For “Coagulation factor VIII (FVIII): TM, G701S A2 domain”, the expression_or_secretion [6] was “decreases”.

In the case of “Coagulation factor VIII (FVIII): TM, A469S A2 domain”, the expression_or_secretion [6] is reported as “increases”.
